Results reported in publication PMC2042504.

Key:
[1] = molecular target: 35S-labeled Vpu TM domain, in vitro translated (gel permeation) (HIV-1, isolate not stated (NL4-3 and R5 cloned)); assay: SEC; gel permeation of 35S-labeled in vitro translation mixture on Sephacryl S200HR in PBS, calibrated with lysozyme and BSA; pentamer and monomer peaks
[2] = molecular target: 35S-labeled full-length Vpu protein, in vitro translated (gel permeation) (HIV-1, isolate not stated (NL4-3 and R5 cloned)); assay: as above
[3] = molecular target: Vpu fused to ECFP or to EYFP (HIV-1, isolate not stated (NL4-3 and R5 cloned)); assay: FRET or BRET; acceptor photobleaching FRET of ECFP-Vpu and EYFP-Vpu in live U2-OS cells, regions that appeared to be Golgi or unidentified vesicles
[4] = molecular target: Vpu fused to ECFP or to EYFP (HIV-1, isolate not stated (NL4-3 and R5 cloned)); assay: FRET or BRET; acceptor photobleaching FRET of ECFP-Vpu and EYFP-Vpu in live COS-1 cells with low expression, punctate and vesicular distribution

## 35S-labeled Vpu TM domain, in vitro translated (gel permeation) (domain or fragment)
[1]
  percent of the radioactivity in the oligomer peak: 10%
  stoichiometry N: 5

## 35S-labeled full-length Vpu protein, in vitro translated (gel permeation) (natural protein)
[2]
  percent of the radioactivity in the oligomer peak: 10%
  stoichiometry N: 5

## Vpu fused to ECFP or to EYFP (natural protein)
[3]
  FRET efficiency: 26%
[4]
  FRET efficiency: 18.5%
